Experimental data reported in paper PMC9798723.

Experiments:
[1] = target: synthetic Aβ42CC (amyloid-β 1-42 peptide with A21C/A30C mutations) (human); test: SEC-MALS; oligomeric preparations (synthetic Aβ42CC 8 h or 24 h at RT at pH 7.2, or aggregated at RT in PBS at 0.6 mg/mL; recombinant Aβ42CC after concentration or incubation); TSK-GEL G4000SWxl, 20 mM sodium phosphate, 150 mM NaCl, pH 7.4, autosampler 5 °C
[2] = target: synthetic Aβ42CC (amyloid-β 1-42 peptide with A21C/A30C mutations) (human); test: SEC-MALS; synthetic Aβ42CC 0.6 mg/mL, 50 min at RT after neutralisation to pH 7.2, then frozen; TSK-GEL G4000SWxl, 20 mM sodium phosphate, 150 mM NaCl, pH 7.4, autosampler 5 °C

- oligomer content [1]: > 94%
Substance: synthetic Aβ42CC (amyloid-β 1-42 peptide with A21C/A30C mutations)
- percent of the peptide present as 104 kDa oligomers [2]: 20%
